Patent CN114397452A (dated 2022)

B1: IMCAS-364 scFv (scFv, V domains shown)
VH: QVQLQESGGGVVQPGRSLRLSCAASGFTFSRYGMHWVRQAPGKGLEWVAVIWYDGSNKYYADSVKGRFTISRDNSKNTLYLQMNSLRADDTAVYYCAKQEGTYCSGGSCYSGLDYWGQGTLVTVSS
VL: not shown
B2: IMCAS-72 scFv (scFv, V domains shown)
VH: QVQLVESGGGLVQPGGSLRLSCAASGFTFSSYGMHWVRQAPGKGLEWVAVISYDGSDKYYADSVKGRFTISRDNSKNTLYLQMNSLRAEDTAVYYCARDRDRFGDQGGWFDPWGQGTLVTVSS
VL: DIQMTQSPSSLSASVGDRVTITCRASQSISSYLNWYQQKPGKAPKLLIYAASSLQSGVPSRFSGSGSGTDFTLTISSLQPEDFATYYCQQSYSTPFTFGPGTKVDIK

Assays:
[1] = target: SARS-CoV RBD蛋白 (SARS-CoV, UniProt P59594 306-527)
[2] = target: 冠状病毒RaTG13 RBD蛋白 (coronavirus RaTG13)

Binder	Kd [1]	Kd [2]
B1	8.17 nM	
B2		6.21 nM
